According to patent US20230399384A1 (University of Texas, published 2023):
Read-outs that look alike come from different tables or passages of the source.

Legend:
[1] = biological target: T1, sCoV2-RBD (Fc-tagged RBD of SARS-CoV-2 S protein) (SARS-CoV-2; human, UniProt P0DTC2 319-541)
[2] = biological target: T2, sCoV-RBD (Fc-tagged RBD of SARS-CoV S protein) (SARS-CoV; human, UniProt P59594 306-527)
[3] = biological target: trimeric prefusion S protein of SARS-CoV-2 (SARS-CoV-2, UniProt P0DTC2 14-1208)
S protein of SARS-CoV = S protein of SARS-CoV (SARS-CoV, UniProt P59594 14-1195)
[4] = biological target: SARS-CoV-2 S protein on live SARS-CoV-2-mNG reporter virus (SARS-CoV-2, UniProt P0DTC2 14-1273); assay: cell-based or functional assay
S protein of MERS-CoV = biological target: T3, S protein of MERS-CoV (MERS-CoV, UniProt K9N5Q8 18-1296); assay: BLI kinetic binding (FIG. 28D)
T3 sequence: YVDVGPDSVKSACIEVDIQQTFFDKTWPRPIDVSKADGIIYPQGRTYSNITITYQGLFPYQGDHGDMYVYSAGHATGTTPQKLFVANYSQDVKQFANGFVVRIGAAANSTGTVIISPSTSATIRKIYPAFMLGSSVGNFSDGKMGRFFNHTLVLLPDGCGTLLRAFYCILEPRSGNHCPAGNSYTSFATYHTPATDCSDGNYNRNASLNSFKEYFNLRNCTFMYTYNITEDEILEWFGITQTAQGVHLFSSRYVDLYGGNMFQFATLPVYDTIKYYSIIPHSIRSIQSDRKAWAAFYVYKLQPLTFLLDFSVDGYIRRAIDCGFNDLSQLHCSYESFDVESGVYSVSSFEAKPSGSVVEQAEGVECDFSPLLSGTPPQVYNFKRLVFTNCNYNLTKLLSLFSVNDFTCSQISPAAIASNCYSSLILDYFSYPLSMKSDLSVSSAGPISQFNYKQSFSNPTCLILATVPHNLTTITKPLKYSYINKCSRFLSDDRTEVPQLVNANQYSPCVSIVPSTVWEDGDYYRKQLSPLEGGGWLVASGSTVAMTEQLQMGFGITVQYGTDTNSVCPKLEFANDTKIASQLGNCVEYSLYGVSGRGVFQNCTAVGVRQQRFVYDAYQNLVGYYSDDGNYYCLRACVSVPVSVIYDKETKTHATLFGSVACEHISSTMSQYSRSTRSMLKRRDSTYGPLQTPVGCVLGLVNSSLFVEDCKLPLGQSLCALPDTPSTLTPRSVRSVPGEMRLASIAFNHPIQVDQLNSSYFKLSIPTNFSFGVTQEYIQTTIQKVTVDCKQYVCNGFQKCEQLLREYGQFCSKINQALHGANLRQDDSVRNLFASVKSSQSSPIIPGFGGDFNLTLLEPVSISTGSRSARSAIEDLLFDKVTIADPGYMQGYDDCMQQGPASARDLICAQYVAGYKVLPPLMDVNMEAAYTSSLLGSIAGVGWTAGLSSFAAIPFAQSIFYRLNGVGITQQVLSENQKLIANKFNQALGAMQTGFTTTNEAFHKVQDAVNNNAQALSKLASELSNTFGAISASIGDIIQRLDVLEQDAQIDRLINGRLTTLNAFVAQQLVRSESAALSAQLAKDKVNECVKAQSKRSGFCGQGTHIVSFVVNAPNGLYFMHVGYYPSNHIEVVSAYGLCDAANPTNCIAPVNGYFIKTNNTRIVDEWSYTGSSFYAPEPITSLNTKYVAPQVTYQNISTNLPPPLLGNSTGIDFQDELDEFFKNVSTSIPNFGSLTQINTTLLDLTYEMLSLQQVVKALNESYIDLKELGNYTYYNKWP

[5] = biological target: T1, sCoV2-RBD (Fc-tagged RBD of SARS-CoV-2 …); assay: ELISA titration on coated sCoV2-RBD
[6] = biological target: T2, sCoV-RBD (Fc-tagged RBD of SARS-CoV S …); assay: BLI (Octet) blocking of ACE2 binding to sCoV-RBD
[7] = biological target: T1, sCoV2-RBD (Fc-tagged RBD of SARS-CoV-2 …); assay: BLI (Octet) blocking of ACE2 binding to captured sCoV2-RBD

B1: CoV2-12 (antibody, V domains shown)
VH: QVQLVESGGGVVQPGRSLRLSCVASGFTFSSYAMQWVRQAPGKGLEYVAVVSDDGNMKFYADSVKGRFTISRDNSRNTVSLQMNSLGVEDTAVYYCARENYFWSGSIGGLDYWGQGTLVSVSS
VL: not shown
EC50 [1]: 0.89 nM | EC50 [2]: 3.51 nM | Kd [3]: 10.7 nM | Kd (S protein of SARS-CoV): 9.95 nM | NC50 (neutralisation of reporter SARS-CoV-2, Vero E6 cells) [4]: 18.2 µg/mL | binding result (S protein of MERS-CoV): no binding | EC50 [5]: 2.11 nM | IC50 [6]: 1.71 µg/mL | IC50 [7]: 2.13 µg/mL
